These results are taken from patent CN111196850A.

Assay [1] has as its target rhTSLP-hFc (human). Kind of assay: cell-based or functional assay.
Assay [2] concerns the target rhTSLP-hFc (human). Kind of assay: cell-based or functional assay. The source holds these as a separate data set.

Where two headings read alike, the source gives them in different places.

Sequence of rhTSLP-hFc (human) (chain, as listed by the source limits assumed): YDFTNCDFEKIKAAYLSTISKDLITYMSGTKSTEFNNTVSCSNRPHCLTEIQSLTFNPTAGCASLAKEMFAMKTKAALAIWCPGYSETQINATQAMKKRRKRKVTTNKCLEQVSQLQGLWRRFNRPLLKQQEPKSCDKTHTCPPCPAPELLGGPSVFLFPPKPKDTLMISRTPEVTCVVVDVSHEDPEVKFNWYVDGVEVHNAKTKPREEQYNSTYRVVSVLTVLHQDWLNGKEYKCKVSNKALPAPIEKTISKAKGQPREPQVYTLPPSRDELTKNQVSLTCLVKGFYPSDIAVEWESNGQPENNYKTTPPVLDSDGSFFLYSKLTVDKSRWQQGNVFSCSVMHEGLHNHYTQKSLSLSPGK

On to “人TSLP单抗Tezepelumab/MEDI9929(Amgen) (antibody)”, for which the results for the IC50, 抑制TSLP刺激的293F转染细胞STAT5-荧光素酶活性 with rhTSLP-hFc (human) [1] and with rhTSLP-hFc (human) [2] were 5.72 µg/mL and 7.04 µg/mL, respectively.
